Data set [1] concerns the molecule itself. The data set can be described thus: cryo-EM structure; single-particle cryo-EM of hZnT7-Fab complexes purified by SEC in 0.02% GDN (Talos Arctica for first maps, CRYO ARM 300II for final data); samples with 1 mM EDTA, with 10 µM Zn2+ or with 200 or 300 µM Zn2+ added.
Data set [2] has as its target T1, human ZnT7 (hZnT7) with an N-terminal PA-tag (human, UniProt Q8NEW0).
T1 construct: human zinc transporter ZnT7, UniProt Q8NEW0; cDNA synthesized with codon optimization; the final model holds residues 22-376; In the antibody screening the purified protein was reconstituted into (biotinylated) proteoliposomes; also called hZnT7 WT; wild-type hZnT7
The data set can be described thus: ELISA + SEC; liposome ELISA on biotinylated hZnT7 proteoliposomes immobilised on streptavidin-coated microplates (with negative selection on SDS-denatured hZnT7); formation of stable complexes by fluorescence-detection SEC. (In general: In an ELISA, binding on a coated surface is turned into a signal by an enzyme label.)

Data set [3] concerns the target T1, human ZnT7 (hZnT7) with an N-terminal …. Kind of data set: cryo-EM structure; single-particle cryo-EM of hZnT7-Fab complexes purified by SEC in 0.02% GDN (Talos Arctica for first maps, CRYO ARM 300II for final data); samples with 1 mM EDTA, with 10 µM Zn2+ or with 200 or 300 µM Zn2+ added. To be noted: both partners purified. Background: In gel filtration, larger molecules generally elute earlier.

The text below walks through data of PMC10409766, “Cryo-EM structures of human zinc transporter ZnT7 reveal the mechanism of Zn^2+ uptake into the Golgi apparatus” (Nature Communications, 2023).

B1: hZnT7ΔHis-loop (residues His176 to Pro221 deleted), PA-tagged (natural protein, human)
chain: MLPLSIKDDEYKPPKFNLFGKISGWFRSILSDKTSRNLFFFLCLNLSFAFVELLYGIWSNCLGLISDSFHMFFDSTAILAGLAASVISKWRDNDAFSYGYVRAEVLAGFVNGLFLIFTAFFIFSEGVERALAPPDVHHERLLLVSILGFVVNLIGIFVFKHGGHGHSHGSGHGHSSLKETTGPSRQILQGVFLHILADTLGSIGVIASAIMMQNFGLMIADPICSILIAILIVVSVIPLLRESVGILMQRTPPLLENSLPQCYQRVQQLQGVYSLQEQHFWTLCSDVYVGTLKLIVAPDADARWILSQTHNIFTQAGVRQLYVQIDFAAM
notes: human zinc transporter ZnT7, UniProt Q8NEW0, with the major portion of the His-loop (His176 to Pro221) deleted; Primers are in Supplementary Data 1; The dimer (copies 2) follows from the 'OF-OF form' and the C2 symmetry; also called hZnT7∆His-loop; pcDNA3.1-PA-hZnT7ΔHis-loop; source: HEK293T, transfected (pcDNA3.1, PEI), purified (anti-PA-tag antibody beads, SEC)
As to B1, the binding result in data set [1] is listed as “binds”.

B2: mouse monoclonal antibody YN7114-08 against hZnT7 (parent of Fab#1) (antibody, V domains shown)
VH: EVQLQESGPGLVAPSQSLSITCTVSGFSLTNYAVHWVRQSPGKGLEWLGVIWSNGRTDYNAAFISRLSISKDNSKSQVFFKMNSLQADDTAIYYCARKLAYEGAMDYWGQGTSVTVSS
VL: DIVLTQSPASLAVSLRRRATISCRASESVDGYGHSFMHWYQQKSGQPPKLLIYRASNLESGVPARFSGSGSRTDFTLTIDPVEADDAATYYCQQSNEDPYTFGSGTKLEIK
notes: Whole antibody as screened by liposome ELISA and fluorescence-detection SEC; source: mouse hybridoma (MRL/lpr mice immunised with hZnT7 proteoliposomes)
For B2, in data set [2], the binding result is on record as “binds”.

B3: Fab#1 (YN7114-08), Fab fragment of a mouse monoclonal antibody against hZnT7 (Fab, V domains shown)
VH: EVQLQESGPGLVAPSQSLSITCTVSGFSLTNYAVHWVRQSPGKGLEWLGVIWSNGRTDYNAAFISRLSISKDNSKSQVFFKMNSLQADDTAIYYCARKLAYEGAMDYWGQGTSVTVSS
VL: DIVLTQSPASLAVSLRRRATISCRASESVDGYGHSFMHWYQQKSGQPPKLLIYRASNLESGVPARFSGSGSRTDFTLTIDPVEADDAATYYCQQSNEDPYTFGSGTKLEIK
notes: the model holds Fab heavy chain residues 1-234; also in the deposited PDB entries; the model holds Fab light chain residues 1-218; also called the Fab fragment; source: Fab fragment of a mouse monoclonal antibody (hybridoma, MRL/lpr mice immunised with hZnT7 proteoliposomes)
B3: the binding result in data set [3] was “binds”.

B4: human ZnT7 (hZnT7) with an N-terminal PA-tag (natural protein)
chain: MLPLSIKDDEYKPPKFNLFGKISGWFRSILSDKTSRNLFFFLCLNLSFAFVELLYGIWSNCLGLISDSFHMFFDSTAILAGLAASVISKWRDNDAFSYGYVRAEVLAGFVNGLFLIFTAFFIFSEGVERALAPPDVHHERLLLVSILGFVVNLIGIFVFKHGGHGHSHGSGHGHSHSLFNGALDQAHGHVDHCHSHEVKHGAAHSHDHAHGHGHFHSHDGPSLKETTGPSRQILQGVFLHILADTLGSIGVIASAIMMQNFGLMIADPICSILIAILIVVSVIPLLRESVGILMQRTPPLLENSLPQCYQRVQQLQGVYSLQEQHFWTLCSDVYVGTLKLIVAPDADARWILSQTHNIFTQAGVRQLYVQIDFAAM
notes: human zinc transporter ZnT7, UniProt Q8NEW0; cDNA synthesized with codon optimization; the final model holds residues 22-376; In the antibody screening the purified protein was reconstituted into (biotinylated) proteoliposomes; also called hZnT7 WT; wild-type hZnT7
With B4, in data set [1], the stoichiometry N (in general, the number of molecules, sites or subunits per partner or assembly) is 2.
